# From patent US20260266848A1, “COMPOSITIONS AND METHODS FOR DIAGNOSING AND TREATING DYSTONIA” (Duke University, priority 2023, published 2026)
# Test system: DYT1 patient plasma derived EVs
# Test: Plasma-derived EV proteomics (ExoQuick ULTRA, DIA LC/MS/MS), DYT1 vs Healthy Controls
# Parameters: species or system human
# Conditions: Hs. Plasma EVs (DYT1/WT); significance of genotype difference
# Procedure: Data was obtained for extracellular vesicles using previously acquired samples. The ExoQuick® ULTRA EV Isolation System was used to fractionate and enrich EVs from plasma. Isolated plasma EV samples were then submitted to proteomic analysis by the Duke Proteomics and Metabolomics Core Facility (DPMCF). At the DPMCF, quantitative (LC/MS/MS) was performed on 500 ng of each sample, using an EvoSep One UPLC system coupled to a Thermo Orbitrap Astral high-resolution accurate mass tandem mass spectrometer (Thermo). Briefly, the sample was eluted directly from an Evotip which was subjected to a low organic wash and then subjected to an analytical separation using a 1.7 μm EvoSep 150 um ID×15 cm endurance (EveoSep) column running an SPD30 gradient from approximately 5 to 30% acetonitrile with 0.1% formic acid with a column temperature of 50 C. Data collection on the Orbitrap Astral mass spectrometer was performed in a data-independent acquisition (DIA) mode of acquisition with a r=240,000 (@m/z 200) full MS scan from m/z 380-980 with a target AGC value of 4e5 ions. Fixed DIA, windows of 4 m/z from m/z 380 to 980 DIA MS/MS scans were acquired in the Astral with a target AGC value of 5e4 and a max fill time of 6 ms. HCD collision energy setting of 27% was used for all MS2 scans.
row,Molecule,-LogP
1,"ACAA1 (protein, UniProt P09110 27-424, looked up) 3-ketoacyl-CoA thiolase, …: LSGAPQASAADVVVVHGRRTAICRAGRGGFKDTTPDELLSAVMTAVLKDVNLRPEQLGDICVGNVLQPGAGAIMARIAQFLSDIPETVPLSTVNRQCSSGLQAVASIAGGIRNGSYDIGMACGVESMSLADRGNPGNITSRLMEKEKARDCLIPMGITSENVAERFGISREKQDTFALASQQKAARAQSKGCFQAEIVPVTTTVHDDKGTKRSITVTQDEGIRPSTTMEGLAKLKPAFKKDGSTTAGNSSQVSDGAAAILLARRSKAEELGLPILGVLRSYAVVGVPPDIMGIGPAYAIPVALQKAGLTVSDVDIFEINEAFASQAAYCVEKLRLPPEKVNPLGGAVALGHPLGCTGARQVITLLNELKRRGKRAYGVVSMCIGTGMGAAAVFEYPGN",1.434
2,"EHD4 (protein, UniProt Q9H223 1-541, looked up) EH domain-containing protein 4: MFSWMGRQAGGRERAGGADAVQTVTGGLRSLYLRKVLPLEEAYRFHEFHSPALEDADFENKPMILLVGQYSTGKTTFIRYLLEQDFPGMRIGPEPTTDSFIAVMYGETEGSTPGNALVVDPKKPFRKLSRFGNAFLNRFMCSQLPNQVLKSISVIDSPGILSGEKQRISRGYDFCQVLQWFAERVDRIILLFDAHKLDISDEFSEAIKAFRGQDDKIRVVLNKADQVDTQQLMRVYGALMWSLGKVINTPEVLRVYIGSFWAQPLQNTDNRRLFEAEAQDLFRDIQSLPQKAAVRKLNDLIKRARLAKVHAYIISYLKKEMPSVFGKENKKRELISRLPEIYIQLQREYQISAGDFPEVKAMQEQLENYDFTKFHSLKPKLIEAVDNMLSNKISPLMNLISQEETSTPTQLVQGGAFDGTTEGPFNQGYGEGAKEGADEEEWVVAKDKPVYDELFYTLSPINGKISGVNAKKEMVTSKLPNSVLGKIWKLADCDCDGMLDEEEFALAKHLIKIKLDGYELPSSLPPHLVPPSHRKSLPKAD",3.322
3,"SLC2A1 (protein, UniProt P11166 1-492, looked up) Solute carrier family 2, …: MEPSSKKLTGRLMLAVGGAVLGSLQFGYNTGVINAPQKVIEEFYNQTWVHRYGESILPTTLTTLWSLSVAIFSVGGMIGSFSVGLFVNRFGRRNSMLMMNLLAFVSAVLMGFSKLGKSFEMLILGRFIIGVYCGLTTGFVPMYVGEVSPTALRGALGTLHQLGIVVGILIAQVFGLDSIMGNKDLWPLLLSIIFIPALLQCIVLPFCPESPRFLLINRNEENRAKSVLKKLRGTADVTHDLQEMKEESRQMMREKKVTILELFRSPAYRQPILIAVVLQLSQQLSGINAVFYYSTSIFEKAGVQQPVYATIGSGIVNTAFTVVSLFVVERAGRRTLHLIGLAGMAGCAILMTIALALLEQLPWMSYLSIVAIFGFVAFFEVGPGPIPWFIVAELFSQGPRPAAIAVAGFSNWTSNFIVGMCFQYVEQLCGPYVFIIFTVLLVLFFIFTYFKVPETKGRTFDEIASGFRQGGASQSDKTPEELFHPLGADSQV",1.635
4,"MARS1 (protein, UniProt P56192 1-900, looked up) Methionine--tRNA ligase, …: MRLFVSDGVPGCLPVLAAAGRARGRAEVLISTVGPEDCVVPFLTRPKVPVLQLDSGNYLFSTSAICRYFFLLSGWEQDDLTNQWLEWEATELQPALSAALYYLVVQGKKGEDVLGSVRRALTHIDHSLSRQNCPFLAGETESLADIVLWGALYPLLQDPAYLPEELSALHSWFQTLSTQEPCQRAAETVLKQQGVLALRPYLQKQPQPSPAEGRAVTNEPEEEELATLSEEEIAMAVTAWEKGLESLPPLRPQQNPVLPVAGERNVLITSALPYVNNVPHLGNIIGCVLSADVFARYSRLRQWNTLYLCGTDEYGTATETKALEEGLTPQEICDKYHIIHADIYRWFNISFDIFGRTTTPQQTKITQDIFQQLLKRGFVLQDTVEQLRCEHCARFLADRFVEGVCPFCGYEEARGDQCDKCGKLINAVELKKPQCKVCRSCPVVQSSQHLFLDLPKLEKRLEEWLGRTLPGSDWTPNAQFITRSWLRDGLKPRCITRDLKWGTPVPLEGFEDKVFYVWFDATIGYLSITANYTDQWERWWKNPEQVDLYQFMAKDNVPFHSLVFPCSALGAEDNYTLVSHLIATEYLNYEDGKFSKSRGVGVFGDMAQDTGIPADIWRFYLLYIRPEGQDSAFSWTDLLLKNNSELLNNLGNFINRAGMFVSKFFGGYVPEMVLTPDDQRLLAHVTLELQHYHQLLEKVRIRDALRSILTISRHGNQYIQVNEPWKRIKGSEADRQRAGTVTGLAVNIAALLSVMLQPYMPTVSATIQAQLQLPPPACSILLTNFLCTLPAGHQIGTVSPLFQKLENDQIESLRQRFGGGQAKTSPKPAVVETVTTAKPQQIQALMDEVTKQGNIVRELKAQKADKNEVAAEVAKLLDLKKQLAVAEGKPPEAPKGKKKK",1.714
5,"TUBB1 (protein, UniProt Q9H4B7 1-451, looked up) Tubulin beta-1 chain: MREIVHIQIGQCGNQIGAKFWEMIGEEHGIDLAGSDRGASALQLERISVYYNEAYGRKYVPRAVLVDLEPGTMDSIRSSKLGALFQPDSFVHGNSGAGNNWAKGHYTEGAELIENVLEVVRHESESCDCLQGFQIVHSLGGGTGSGMGTLLMNKIREEYPDRIMNSFSVMPSPKVSDTVVEPYNAVLSIHQLIENADACFCIDNEALYDICFRTLKLTTPTYGDLNHLVSLTMSGITTSLRFPGQLNADLRKLAVNMVPFPRLHFFMPGFAPLTAQGSQQYRALSVAELTQQMFDARNTMAACDLRRGRYLTVACIFRGKMSTKEVDQQLLSVQTRNSSCFVEWIPNNVKVAVCDIPPRGLSMAATFIGNNTAIQEIFNRVSEHFSAMFKRKAFVHWYTSEGMDINEFGEAENNIHDLVSEYQQFQDAKAVLEEDEEVTEEAEMEPEDKGH",2.267
6,"BZW2 (protein, UniProt Q9Y6E2 1-419, looked up) eIF5-mimic protein 1: MNKHQKPVLTGQRFKTRKRDEKEKFEPTVFRDTLVQGLNEAGDDLEAVAKFLDSTGSRLDYRRYADTLFDILVAGSMLAPGGTRIDDGDKTKMTNHCVFSANEDHETIRNYAQVFNKLIRRYKYLEKAFEDEMKKLLLFLKAFSETEQTKLAMLSGILLGNGTLPATILTSLFTDSLVKEGIAASFAVKLFKAWMAEKDANSVTSSLRKANLDKRLLELFPVNRQSVDHFAKYFTDAGLKELSDFLRVQQSLGTRKELQKELQERLSQECPIKEVVLYVKEEMKRNDLPETAVIGLLWTCIMNAVEWNKKEELVAEQALKHLKQYAPLLAVFSSQGQSELILLQKVQEYCYDNIHFMKAFQKIVVLFYKADVLSEEAILKWYKEAHVAKGKSVFLDQMKKFVEWLQNAEEESESEGEEN",1.385
7,"LRRC59 (protein, UniProt Q96AG4 1-307, looked up) Leucine-rich …: MTKAGSKGGNLRDKLDGNELDLSLSDLNEVPVKELAALPKATILDLSCNKLTTLPSDFCGLTHLVKLDLSKNKLQQLPADFGRLVNLQHLDLLNNKLVTLPVSFAQLKNLKWLDLKDNPLDPVLAKVAGDCLDEKQCKQCANKVLQHMKAVQADQERERQRRLEVEREAEKKREAKQRAKEAQERELRKREKAEEKERRRKEYDALKAAKREQEKKPKKEANQAPKSKSGSRPRKPPPRKHTRSWAVLKLLLLLLLFGVAGGLVACRVTELQQQPLCTSVNTIYDNAVQGLRRHEILQWVLQTDSQQ",1.584
8,"MRC2 (protein, UniProt Q9UBG0 31-1479, looked up) C-type mannose receptor 2: GAPGDAALPEPNVFLIFSHGLQGCLEAQGGQVRVTPACNTSLPAQRWKWVSRNRLFNLGTMQCLGTGWPGTNTTASLGMYECDREALNLRWHCRTLGDQLSLLLGARTSNISKPGTLERGDQTRSGQWRIYGSEEDLCALPYHEVYTIQGNSHGKPCTIPFKYDNQWFHGCTSTGREDGHLWCATTQDYGKDERWGFCPIKSNDCETFWDKDQLTDSCYQFNFQSTLSWREAWASCEQQGADLLSITEIHEQTYINGLLTGYSSTLWIGLNDLDTSGGWQWSDNSPLKYLNWESDQPDNPSEENCGVIRTESSGGWQNRDCSIALPYVCKKKPNATAEPTPPDRWANVKVECEPSWQPFQGHCYRLQAEKRSWQESKKACLRGGGDLVSIHSMAELEFITKQIKQEVEELWIGLNDLKLQMNFEWSDGSLVSFTHWHPFEPNNFRDSLEDCVTIWGPEGRWNDSPCNQSLPSICKKAGQLSQGAAEEDHGCRKGWTWHSPSCYWLGEDQVTYSEARRLCTDHGSQLVTITNRFEQAFVSSLIYNWEGEYFWTALQDLNSTGSFFWLSGDEVMYTHWNRDQPGYSRGGCVALATGSAMGLWEVKNCTSFRARYICRQSLGTPVTPELPGPDPTPSLTGSCPQGWASDTKLRYCYKVFSSERLQDKKSWVQAQGACQELGAQLLSLASYEEEHFVANMLNKIFGESEPEIHEQHWFWIGLNRRDPRGGQSWRWSDGVGFSYHNFDRSRHDDDDIRGCAVLDLASLQWVAMQCDTQLDWICKIPRGTDVREPDDSPQGRREWLRFQEAEYKFFEHHSTWAQAQRICTWFQAELTSVHSQAELDFLSHNLQKFSRAQEQHWWIGLHTSESDGRFRWTDGSIINFISWAPGKPRPVGKDKKCVYMTASREDWGDQRCLTALPYICKRSNVTKETQPPDLPTTALGGCPSDWIQFLNKCFQVQGQEPQSRVKWSEAQFSCEQQEAQLVTITNPLEQAFITASLPNVTFDLWIGLHASQRDFQWVEQEPLMYANWAPGEPSGPSPAPSGNKPTSCAVVLHSPSAHFTGRWDDRSCTEETHGFICQKGTDPSLSPSPAALPPAPGTELSYLNGTFRLLQKPLRWHDALLLCESRNASLAYVPDPYTQAFLTQAARGLRTPLWIGLAGEEGSRRYSWVSEEPLNYVGWQDGEPQQPGGCTYVDVDGAWRTTSCDTKLQGAVCGVSSGPPPPRRISYHGSCPQGLADSAWIPFREHCYSFHMELLLGHKEARQRCQRAGGAVLSILDEMENVFVWEHLQSYEGQSRGAWLGMNFNPKGGTLVWQDNTAVNYSNWGPPGLGPSMLSHNSCYWIQSNSGLWRPGACTNITMGVVCKLPRAEQSSFSPSALPENPAALVVVLMAVLLLLALLTAALILYRRRQSIERGAFEGARYSRSSSSPTEATEKNILVSDMEMNEQQE",1.456
9,"PSMD12 (protein, UniProt O00232 2-456, looked up) 26S proteasome non-ATPase …: ADGGSERADGRIVKMEVDYSATVDQRLPECAKLAKEGRLQEVIETLLSLEKQTRTASDMVSTSRILVAVVKMCYEAKEWDLLNENIMLLSKRRSQLKQAVAKMVQQCCTYVEEITDLPIKLRLIDTLRMVTEGKIYVEIERARLTKTLATIKEQNGDVKEAASILQELQVETYGSMEKKERVEFILEQMRLCLAVKDYIRTQIISKKINTKFFQEENTEKLKLKYYNLMIQLDQHEGSYLSICKHYRAIYDTPCIQAESEKWQQALKSVVLYVILAPFDNEQSDLVHRISGDKKLEEIPKYKDLLKLFTTMELMRWSTLVEDYGMELRKGSLESPATDVFGSTEEGEKRWKDLKNRVVEHNIRIMAKYYTRITMKRMAQLLDLSVDESEAFLSNLVVNKTIFAKVDRLAGIINFQRPKDPNNLLNDWSQKLNSLMSLVNKTTHLIAKEEMIHNLQ",1.461
